# Laboratory results published in the supplement of paper PMC10065799, “High-throughput profiling of sequence recognition by tyrosine kinases and SH2 domains using bacterial peptide display” (eLife, 2023).
# Columns and labels:
# c-Src SH2 = test: SH2 binding enrichment of the phosphorylated peptide, bacterial display (enrichment ratio); higher = better substrate or ligand; peptides without Tyr show the background
# SHP2-C SH2 = test: as above
# Grb2 SH2 = Grb2 SH2 (UniProt P62993); test: as above
# Fer (mouse) = test: phosphorylation enrichment, bacterial display (enrichment ratio); higher = better substrate or ligand; peptides without Tyr show the background
# c-Src = test: as above
# Fes = Fes (UniProt P07332); test: as above
# MERTK = MERTK (UniProt Q12866); test: as above
# EPHB1 = EPHB1 (UniProt P54762); test: as above
# FGFR3 = FGFR3 (UniProt P22607); test: as above
# Fyn = Fyn (UniProt P06241); test: as above
# EPHB2 = EPHB2 (UniProt P29323); test: as above
# AncSZ = test: as above
# Hck = Hck (UniProt P08631); test: as above
# c-Abl (mouse) = test: as above
# Jak2 = Jak2 (UniProt O60674); test: as above
# FGFR1 = FGFR1 (UniProt P11362); test: as above
# 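Throughout, for SH2 binding enrichment of the phosphorylated peptide, bacterial display: peptide library displayed on the E. coli surface as eCPX fusions, selected cells deep-sequenced, score is each peptide's frequency after selection divided by its frequency in the input.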
# 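Throughout, for phosphorylation enrichment, bacterial display: 11-residue human phosphosite peptides and single-mutation variants displayed on the E. coli surface, counted by deep sequencing, each peptide's frequency after selection divided by its frequency in the unselected input library; frequency after pTyr selection over input frequency; kinase dosed for 20-30% of maximal phosphorylation in three min.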
# FGFR3, sequence (P22607 whole entry, looked up): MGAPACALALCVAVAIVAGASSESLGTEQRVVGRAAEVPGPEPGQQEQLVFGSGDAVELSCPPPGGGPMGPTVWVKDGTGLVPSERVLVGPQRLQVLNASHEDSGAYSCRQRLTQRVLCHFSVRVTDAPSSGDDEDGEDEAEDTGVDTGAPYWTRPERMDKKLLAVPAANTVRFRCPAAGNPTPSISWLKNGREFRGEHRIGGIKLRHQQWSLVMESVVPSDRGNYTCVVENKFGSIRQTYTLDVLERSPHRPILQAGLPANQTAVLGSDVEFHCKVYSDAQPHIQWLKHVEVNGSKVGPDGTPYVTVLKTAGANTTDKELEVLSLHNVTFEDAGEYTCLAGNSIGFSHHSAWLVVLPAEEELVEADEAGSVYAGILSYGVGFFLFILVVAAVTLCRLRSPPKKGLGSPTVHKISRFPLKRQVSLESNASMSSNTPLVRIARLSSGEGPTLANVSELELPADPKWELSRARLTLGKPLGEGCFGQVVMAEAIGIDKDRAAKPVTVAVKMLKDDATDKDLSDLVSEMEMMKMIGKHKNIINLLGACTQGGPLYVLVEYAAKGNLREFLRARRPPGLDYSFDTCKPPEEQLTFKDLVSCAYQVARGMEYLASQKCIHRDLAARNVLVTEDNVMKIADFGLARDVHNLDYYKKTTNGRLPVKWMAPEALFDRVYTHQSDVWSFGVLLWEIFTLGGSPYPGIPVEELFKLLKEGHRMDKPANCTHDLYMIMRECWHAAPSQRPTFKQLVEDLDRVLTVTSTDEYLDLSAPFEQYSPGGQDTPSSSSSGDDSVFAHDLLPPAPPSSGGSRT
# FGFR1, sequence (P11362 whole entry, looked up, the tested form may be a part): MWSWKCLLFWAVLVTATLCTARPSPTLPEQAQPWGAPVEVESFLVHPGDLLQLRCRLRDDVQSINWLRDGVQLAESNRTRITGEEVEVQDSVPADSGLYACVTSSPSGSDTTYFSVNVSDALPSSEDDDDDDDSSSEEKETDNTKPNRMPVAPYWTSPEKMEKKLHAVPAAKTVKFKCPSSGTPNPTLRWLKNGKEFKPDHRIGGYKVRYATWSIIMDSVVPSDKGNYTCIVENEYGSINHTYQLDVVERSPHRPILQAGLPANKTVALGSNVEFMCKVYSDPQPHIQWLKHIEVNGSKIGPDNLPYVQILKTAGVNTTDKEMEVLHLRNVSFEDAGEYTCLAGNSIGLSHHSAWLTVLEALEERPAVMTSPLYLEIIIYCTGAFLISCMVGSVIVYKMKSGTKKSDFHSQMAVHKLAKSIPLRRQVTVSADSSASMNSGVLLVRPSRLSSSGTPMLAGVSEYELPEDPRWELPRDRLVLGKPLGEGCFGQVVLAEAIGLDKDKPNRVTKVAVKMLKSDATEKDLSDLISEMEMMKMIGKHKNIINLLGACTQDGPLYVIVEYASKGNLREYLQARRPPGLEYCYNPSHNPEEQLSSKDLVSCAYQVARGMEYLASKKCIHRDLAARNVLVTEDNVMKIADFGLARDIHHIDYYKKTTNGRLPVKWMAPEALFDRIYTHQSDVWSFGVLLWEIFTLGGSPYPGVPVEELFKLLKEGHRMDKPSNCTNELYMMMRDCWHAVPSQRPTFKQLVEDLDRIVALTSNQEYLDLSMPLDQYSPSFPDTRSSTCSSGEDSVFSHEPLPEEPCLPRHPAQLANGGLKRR
# Jak2, sequence (O60674 whole entry, looked up): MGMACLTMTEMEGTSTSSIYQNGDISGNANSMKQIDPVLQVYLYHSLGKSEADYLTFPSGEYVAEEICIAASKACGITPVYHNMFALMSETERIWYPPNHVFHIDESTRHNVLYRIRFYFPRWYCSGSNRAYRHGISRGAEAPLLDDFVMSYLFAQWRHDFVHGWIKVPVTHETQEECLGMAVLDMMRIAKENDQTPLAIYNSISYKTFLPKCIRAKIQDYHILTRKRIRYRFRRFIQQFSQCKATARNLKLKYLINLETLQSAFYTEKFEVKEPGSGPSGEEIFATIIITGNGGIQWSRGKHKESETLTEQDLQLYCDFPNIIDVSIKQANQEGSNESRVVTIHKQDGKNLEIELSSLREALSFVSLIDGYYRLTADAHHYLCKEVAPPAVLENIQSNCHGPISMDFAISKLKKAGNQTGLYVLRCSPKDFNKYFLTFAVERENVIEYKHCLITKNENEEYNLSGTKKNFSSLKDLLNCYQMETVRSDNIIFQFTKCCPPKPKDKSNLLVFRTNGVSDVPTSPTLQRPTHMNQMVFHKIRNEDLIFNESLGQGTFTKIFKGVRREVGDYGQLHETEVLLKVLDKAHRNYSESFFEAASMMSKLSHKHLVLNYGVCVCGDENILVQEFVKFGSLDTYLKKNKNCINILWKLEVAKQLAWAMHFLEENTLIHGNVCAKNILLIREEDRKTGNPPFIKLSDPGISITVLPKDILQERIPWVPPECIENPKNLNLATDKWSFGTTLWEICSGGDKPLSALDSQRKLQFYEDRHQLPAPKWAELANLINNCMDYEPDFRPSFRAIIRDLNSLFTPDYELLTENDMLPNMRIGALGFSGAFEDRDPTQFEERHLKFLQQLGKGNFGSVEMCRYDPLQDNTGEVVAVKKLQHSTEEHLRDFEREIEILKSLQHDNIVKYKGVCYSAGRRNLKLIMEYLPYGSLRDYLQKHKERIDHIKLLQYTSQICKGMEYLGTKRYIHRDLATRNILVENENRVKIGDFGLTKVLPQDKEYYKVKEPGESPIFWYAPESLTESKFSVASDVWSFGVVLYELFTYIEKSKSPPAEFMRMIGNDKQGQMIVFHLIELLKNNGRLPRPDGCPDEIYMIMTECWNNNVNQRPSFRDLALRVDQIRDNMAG
# EPHB2, sequence (P29323 whole entry, looked up): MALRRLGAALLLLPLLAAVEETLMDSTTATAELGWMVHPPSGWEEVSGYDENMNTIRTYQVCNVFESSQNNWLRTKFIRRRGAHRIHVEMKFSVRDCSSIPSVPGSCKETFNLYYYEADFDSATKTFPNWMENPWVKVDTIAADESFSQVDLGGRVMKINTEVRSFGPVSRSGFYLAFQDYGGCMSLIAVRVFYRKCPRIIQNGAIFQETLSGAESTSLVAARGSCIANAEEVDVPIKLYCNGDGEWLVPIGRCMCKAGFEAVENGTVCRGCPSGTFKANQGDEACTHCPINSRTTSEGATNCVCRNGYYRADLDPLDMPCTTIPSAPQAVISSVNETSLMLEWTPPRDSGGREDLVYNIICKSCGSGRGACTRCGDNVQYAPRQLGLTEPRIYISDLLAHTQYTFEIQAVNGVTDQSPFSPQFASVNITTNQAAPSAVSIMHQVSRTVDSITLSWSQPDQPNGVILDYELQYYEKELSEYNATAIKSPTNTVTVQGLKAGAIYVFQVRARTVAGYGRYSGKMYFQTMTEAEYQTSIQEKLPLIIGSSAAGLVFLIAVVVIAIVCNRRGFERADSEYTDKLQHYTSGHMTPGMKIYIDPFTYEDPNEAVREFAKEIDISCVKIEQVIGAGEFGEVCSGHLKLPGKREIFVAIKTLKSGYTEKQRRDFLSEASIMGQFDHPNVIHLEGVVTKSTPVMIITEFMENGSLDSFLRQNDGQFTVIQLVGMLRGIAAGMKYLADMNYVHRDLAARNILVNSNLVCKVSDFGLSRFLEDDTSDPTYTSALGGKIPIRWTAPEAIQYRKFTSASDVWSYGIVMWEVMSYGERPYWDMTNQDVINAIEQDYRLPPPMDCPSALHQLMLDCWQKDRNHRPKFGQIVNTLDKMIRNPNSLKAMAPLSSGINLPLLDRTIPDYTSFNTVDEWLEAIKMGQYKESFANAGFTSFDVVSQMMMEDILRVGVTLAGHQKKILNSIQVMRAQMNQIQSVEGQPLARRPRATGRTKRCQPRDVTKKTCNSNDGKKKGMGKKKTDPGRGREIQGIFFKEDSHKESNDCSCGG
# MERTK, sequence (Q12866 whole entry, looked up): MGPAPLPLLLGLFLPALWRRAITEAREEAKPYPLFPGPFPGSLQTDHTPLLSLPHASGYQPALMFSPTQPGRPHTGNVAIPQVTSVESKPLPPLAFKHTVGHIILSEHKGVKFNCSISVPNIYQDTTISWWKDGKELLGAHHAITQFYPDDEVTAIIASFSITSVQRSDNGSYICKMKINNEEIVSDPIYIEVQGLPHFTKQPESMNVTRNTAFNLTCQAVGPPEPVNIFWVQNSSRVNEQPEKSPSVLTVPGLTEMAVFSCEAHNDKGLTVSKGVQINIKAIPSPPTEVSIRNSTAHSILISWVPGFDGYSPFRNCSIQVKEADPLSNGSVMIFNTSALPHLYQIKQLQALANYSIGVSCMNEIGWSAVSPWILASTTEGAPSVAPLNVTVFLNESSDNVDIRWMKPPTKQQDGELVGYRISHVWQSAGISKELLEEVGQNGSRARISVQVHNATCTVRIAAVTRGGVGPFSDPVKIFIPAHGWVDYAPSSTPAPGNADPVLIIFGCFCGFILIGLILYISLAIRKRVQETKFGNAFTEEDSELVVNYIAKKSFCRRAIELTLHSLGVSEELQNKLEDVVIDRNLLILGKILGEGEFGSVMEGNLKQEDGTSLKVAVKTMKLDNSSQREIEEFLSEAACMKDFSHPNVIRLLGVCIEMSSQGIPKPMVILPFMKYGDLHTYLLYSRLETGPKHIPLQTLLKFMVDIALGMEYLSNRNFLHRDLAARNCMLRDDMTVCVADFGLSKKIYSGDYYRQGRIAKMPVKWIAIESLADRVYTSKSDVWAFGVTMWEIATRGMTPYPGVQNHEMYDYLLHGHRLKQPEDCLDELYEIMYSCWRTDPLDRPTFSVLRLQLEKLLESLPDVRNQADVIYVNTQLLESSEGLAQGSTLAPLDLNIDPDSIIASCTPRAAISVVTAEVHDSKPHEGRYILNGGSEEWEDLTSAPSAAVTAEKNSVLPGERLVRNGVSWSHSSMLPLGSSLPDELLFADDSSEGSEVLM
SH2 binding enrichment (c-Src SH2),SH2 binding enrichment (SHP2-C SH2),SH2 binding enrichment (Grb2 SH2),Sequence,phosphorylation enrichment (Fer (mouse)),phosphorylation enrichment (c-Src),phosphorylation enrichment (Fes),phosphorylation enrichment (MERTK),phosphorylation enrichment (EPHB1),phosphorylation enrichment (FGFR3),phosphorylation enrichment (Fyn),phosphorylation enrichment (EPHB2),phosphorylation enrichment (AncSZ),phosphorylation enrichment (Hck),phosphorylation enrichment (c-Abl (mouse)),phosphorylation enrichment (Jak2),phosphorylation enrichment (FGFR1)
0.471,0.725,0.754,LEIETYRRLRD [KRT12_Y429_L433R],0.351,0.672,1.25,0.834,0.533,0.809,0.658,0.559,0.859,0.674,0.659,1.23,0.645
0.449,0.626,0.808,NSRYTCKLEVK [USH2A_Y3747_Y3747C],0.501,0.441,1.45,0.387,0.678,0.885,0.407,0.57,1.21,0.471,0.921,1.19,0.471
0.465,0.816,0.715,KDGSGYISAAE [CALM1_Y100_N98S],0.369,0.4,0.82,0.464,0.388,0.496,0.476,0.409,0.648,0.444,0.544,0.6,0.456
0.509,1,0.877,HNVAIYEGFAL [ACTC1_Y168_P166A_YF],17,9.03,1.3,8.57,11.1,0.781,13.3,11.2,1.28,9.95,9.06,0.972,0.56
2.21,1.62,1.62,CTNIHYNFMCN [TP53_Y234_T231N_YF],0.481,0.562,0.974,0.423,0.436,0.714,0.456,0.597,0.8,0.426,0.655,0.693,0.554
0.572,0.665,0.846,YRDALYKFMVD [PHEX_Y250],0.678,0.624,1.33,1.2,1.24,1.25,0.61,0.797,1.14,0.712,0.803,1.11,0.869
0.55,0.888,0.919,RGDIFYTSKLW [AKR1C3_Y81_E77G],0.648,0.735,1.59,0.803,0.964,1.09,0.611,0.963,1.72,0.46,0.889,1.33,0.923
0.556,0.759,0.768,FDDIAYIRKNL [PIK3CA_Y1021_T1025N],0.361,0.379,0.852,0.416,0.409,0.56,0.403,0.506,0.864,0.5,0.483,0.494,0.432
